This assay addresses α5β1 integrin (Homo sapiens, UniProt P08648). Put plainly: SPR. For orientation: Surface plasmon resonance follows binding to a sensor surface in real time, without labels.

Experimental findings from publication PMC2779590 (2009) are described below.

Chain of α5β1 integrin (P08648 42-1049, chain 1 of 2): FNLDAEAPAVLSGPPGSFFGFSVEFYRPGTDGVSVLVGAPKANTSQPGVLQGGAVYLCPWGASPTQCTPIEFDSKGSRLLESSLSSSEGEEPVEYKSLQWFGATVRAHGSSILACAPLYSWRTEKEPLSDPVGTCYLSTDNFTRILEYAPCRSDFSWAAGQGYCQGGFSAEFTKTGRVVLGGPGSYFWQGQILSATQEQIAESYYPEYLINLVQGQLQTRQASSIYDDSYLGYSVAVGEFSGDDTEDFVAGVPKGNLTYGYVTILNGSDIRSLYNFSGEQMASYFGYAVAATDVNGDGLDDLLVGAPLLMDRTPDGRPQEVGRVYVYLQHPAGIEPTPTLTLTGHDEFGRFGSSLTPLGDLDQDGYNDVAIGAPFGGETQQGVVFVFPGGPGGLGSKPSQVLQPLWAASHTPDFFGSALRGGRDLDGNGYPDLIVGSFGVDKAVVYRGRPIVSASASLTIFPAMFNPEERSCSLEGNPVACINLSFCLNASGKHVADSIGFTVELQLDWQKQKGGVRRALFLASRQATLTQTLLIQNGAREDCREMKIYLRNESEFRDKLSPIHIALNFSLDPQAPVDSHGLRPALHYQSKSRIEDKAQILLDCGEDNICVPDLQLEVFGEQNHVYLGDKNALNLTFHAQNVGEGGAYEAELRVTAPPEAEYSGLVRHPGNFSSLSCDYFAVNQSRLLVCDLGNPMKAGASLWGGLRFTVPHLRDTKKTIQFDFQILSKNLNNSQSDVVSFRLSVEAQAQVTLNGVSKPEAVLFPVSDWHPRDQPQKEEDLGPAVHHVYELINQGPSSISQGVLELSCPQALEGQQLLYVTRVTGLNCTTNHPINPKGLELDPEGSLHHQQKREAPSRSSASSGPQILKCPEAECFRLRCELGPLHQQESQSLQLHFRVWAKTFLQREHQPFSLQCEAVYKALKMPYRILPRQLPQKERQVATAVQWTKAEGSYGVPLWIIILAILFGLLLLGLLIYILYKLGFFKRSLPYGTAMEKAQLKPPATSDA
Chain of α5β1 integrin (chain, as listed by the source, chain 2 of 2): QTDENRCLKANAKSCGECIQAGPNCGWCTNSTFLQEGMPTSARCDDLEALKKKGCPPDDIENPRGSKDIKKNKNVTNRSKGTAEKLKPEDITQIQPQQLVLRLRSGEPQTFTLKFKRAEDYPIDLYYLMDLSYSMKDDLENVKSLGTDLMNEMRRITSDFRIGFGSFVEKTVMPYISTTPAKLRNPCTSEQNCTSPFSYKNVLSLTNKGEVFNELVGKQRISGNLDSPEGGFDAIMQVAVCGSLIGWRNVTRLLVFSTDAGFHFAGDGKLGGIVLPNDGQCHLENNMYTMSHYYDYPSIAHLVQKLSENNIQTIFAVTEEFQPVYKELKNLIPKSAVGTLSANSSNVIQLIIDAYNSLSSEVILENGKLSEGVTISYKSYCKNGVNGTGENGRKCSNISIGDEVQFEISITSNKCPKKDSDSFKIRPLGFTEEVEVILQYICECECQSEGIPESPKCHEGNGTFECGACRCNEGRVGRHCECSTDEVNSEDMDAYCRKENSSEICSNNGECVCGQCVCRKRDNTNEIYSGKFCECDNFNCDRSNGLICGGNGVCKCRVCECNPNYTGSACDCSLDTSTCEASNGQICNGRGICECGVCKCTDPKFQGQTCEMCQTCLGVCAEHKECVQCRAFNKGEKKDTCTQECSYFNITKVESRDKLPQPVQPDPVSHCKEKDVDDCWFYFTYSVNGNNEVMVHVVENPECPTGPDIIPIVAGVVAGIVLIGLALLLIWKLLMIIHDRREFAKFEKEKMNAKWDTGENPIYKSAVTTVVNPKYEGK

B1: CagA (protein)
chain: MTNETIDQTRTPDQTQSQTAFDPQQFINNLQVAFIKVDNVVASFDPDQKPIVDKNDRDNRQAFDGISQLREEYSNKAIKNPTKKNQYFSDFIDKSNDLINKDNLIDVESSTKSFQKFGDQRYQIFTSWVSHQKDPSKINTRSIRNFMENIIQPPIPDDKEKAEFLKSAKQSFAGIIIGNQIRTDQKFMGVFDESLKERQEAEKNGGPTGGDWLDIFLSFIFNKKQSSDVKEAINQEPVPHVQPDIATTTTDIQGLPPEARDLLDERGNFSKFTLGDMEMLDVEGVADIDPNYKFNQLLIHNNALSSVLMGSHNGIEPEKVSLLYAGNGGFGDKHDWNATVGYKDQQGNNVATLINVHMKNGSGLVIAGGEKGINNPSFYLYKEDQLTGSQRALSQEEIRNKVDFMEFLAQNNTKLDNLSEKEKEKFQNEIEDFQKDSKAYLDALGNDRIAFVSKKDTKHSALITEFNNGDLSYTLKDYGKKADKALDREKNVTLQGSLKHDGVMFVDYSNFKYTNASKNPNKGVGATNGVSHLEAGFNKVAVFNLPDLNNLAITSFVRRNLENKLTAKGLSLQEANKLIKDFLSSNKELAGKALNFNKAVAEAKSTGNYDEVKKAQKDLEKSLRKREHLEKEVEKKLESKSGNKNKMEAKAQANSQKDEIFALINKEANRDARAIAYTQNLKGIKRELSDKLEKISKDLKDFSKSFDEFKNGKNKDFSKAEETLKALKGSVKDLGINPEWISKVENLNAALNEFKNGKNKDFSKVTQAKSDLENSVKDVIINQKVTDKVDNLNQAVSVAKAMGDFSRVEQVLADLKNFSKEQLAQQAQKNEDFNTGKNSELYQSVKNSVNKTLVGNGLSGIEATALAKNFSDIKKELNEKFKNFNNNNNGLKNSTEPIYAKVNKKKTGQVASPEEPIYTQVAKKVNAKIDRLNQIASGLGGVGQAAGFPLKRHDKVDDLSKVGLSASPEPIYATIDDLGGPFPLKRHDKVDDLSKVGRSRNQELAQKIDNLNQAVSEAKAGFFGNLEQTIDKLKDSTKKNVMNLYVESAKKVPASLSAKLDNYAINSHTRINSNIQNGAINEKATGMLTQKNPEWLKLVNDKIVAHNVGSVSLSEYDKIGFNQKNMKDYSDSFKFSTKLNNAVKDIKSGFTHFLANAFSTGYYCLARENAEHGIKNVNTKGGFQKS
The term Kd denotes the equilibrium constant for the complex coming apart. A low value points to higher affinity. B1 displayed a Kd of 0.15 nM.
